molecular target: purified recombinant HCV/E2 of 1a genotype (strain H) expressed in CHO cells (Hepatitis C virus genotype 1a (strain H), UniProt P27958 388-664)
Sequence (P27958 388-664 limits assumed): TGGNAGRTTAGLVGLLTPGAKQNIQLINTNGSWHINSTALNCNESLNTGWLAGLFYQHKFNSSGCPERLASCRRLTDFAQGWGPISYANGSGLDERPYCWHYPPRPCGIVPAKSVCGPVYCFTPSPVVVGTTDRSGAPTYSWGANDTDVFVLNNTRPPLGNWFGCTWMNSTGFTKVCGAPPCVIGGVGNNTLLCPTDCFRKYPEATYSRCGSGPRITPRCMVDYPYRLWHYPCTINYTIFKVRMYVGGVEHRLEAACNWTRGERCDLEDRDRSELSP

Binder | IC50
human recombinant Fab e137 (Fab, V domains shown) VH: LLEQSGSEVKVPGSSLKVSCKTSGGTFSTYTFSWVRQAPGQGLEWMGGITPIIGIANYARNFQDRVTITADESTSTVYMEVRRLRSEDTAVYYCAKTSEVTATRGRTFFYSAMDVWGQGT VL: MAELTQSPSFLSASVGDRVTITCRASQGISNYLAWYQQKPGKAPKLLIYAASTLQSGVPSRFSGSGSWTEFTLTISRLQPEDFATYYCQHLNTYPWTFGQGT | 40 µg/mL
human recombinant Fab e509 (Fab, V domains shown) VH: LLEESGAEVKKPGSSVKVSCKTSGDTFRYGITWVRQAPGQGLEWMGQIMPTFATATYAQRFQGRVTISADESTSTAYLEVRSLRSEDTAVYYCATPRQVTILRGPKALSPWDYWGQGT VL: not shown | < 0.035 µg/mL
human recombinant Fab e20 (Fab, V domains shown) VH: LLEQSGAEVKKPGSSVKVSCKASGDHYGINWVRQAPGQGLEWMGGIIPVFGTTTYAQKFQGRATITADDSTGTAFLELTRLTFDDTAVYFCATPHQLHVLRGGKALSPWDYWGQGT VL: MAELTQSPATLSVSPGERATLSCRASQSVSSNLAWYQQKRGQAPSLLIYGTSTRATGIPARFSGSGSGTEFTLTISSLQSEDFAVYYCQQYNDWPSTFGQGT | 3 µg/mL
human recombinant Fab e301 (Fab, V domains shown) VH: LLEQSGSEVKKPGSSVRVSCTTSGGTLSDYGFNWLRQAPGQGPEWMGGIIPLFRRTTYGQKFQGRLTITADESTGATYMELSSLRSDDTAVYYCAREKVSVLTGGKSLHYFEYWGKGT VL: MAELTQSPATLSVSPGERATLSCRASQSVSSRLAWYQQKRGQAPSLLIYDTSSRATGVPARFSASGSGTQFTLTISSLQSEDFALYYCQQYNDWPSTFGQGT | 3 µg/mL
human recombinant Fab e8 (Fab, V domains shown) VH: LLEQSGAEVKMPGATVKVSCQSSRYTFTSYGIGWVRQAPGQGLEWMGWISGYTHETKYAQSFQGRVTMTAETSTGTAYMELRSLRSDDTATYYCARDGGGRVVVPPTHLRAFDVWGQGT VL: MAELTQSPGTLSLSPGERATLSCRASHRVNNNFLAWYQQKPGQAPRLLISGASTRATGIPDRFSGSGSGTDFTLTISRLEPDDFAVYYCQQYGDSPLYSFGQGT | > 40 µg/mL

Reference: patent US20080241162A1 (GENERAL ANTIBODIES AND BIOTECHNOLOGIES S R L, published 2008)
